According to US20080199879A1:

How the values were obtained:
[1] = target: 15 L-β33-42 peptide+ruthenium complex-labeled polylysine-bound substance; test: competitive electrochemiluminescence immunoassay, no competitor: labeled peptide composite (1 µg/ml) bound to bead-bound 21F12
[2] = target: Aβ1-42 synthetic peptide (produced by Peptide Institute, Inc.); test: competitive electrochemiluminescence immunoassay, no competitor: ruthenium-labeled 21F12 (0.1 µg/ml) bound to bead-bound Aβ1-42
[3] = target: 15 L-β33-42 peptide+ruthenium complex-labeled polylysine-bound substance; test: competitive electrochemiluminescence immunoassay, no competitor: labeled peptide composite bound to bead-bound 21F12
[4] = target: enzyme degradation product of the Aβ1-42 synthetic peptide (trypsin treated Aβ1-42 synthetic peptide); test: electrochemiluminescence double antibody sandwich; 21F12 beads, ruthenium-labeled 3D6 detection; trypsin-treated Aβ1-42 sample against untreated control
[5] = target: Aβ1-42 synthetic peptide (produced by Peptide Institute, Inc.); test: electrochemiluminescence double antibody sandwich; 21F12 on magnetic beads, ruthenium-labeled 3D6 detection; Aβ1-42 at 25 pg/mL
[6] = target: enzyme degradation product of the Aβ1-42 synthetic peptide (trypsin treated Aβ1-42 synthetic peptide); test: electrochemiluminescence double antibody sandwich; 21F12 beads, ruthenium-labeled 3D6 detection; trypsin-treated Aβ1-42 sample
[7] = target: Aβ1-42 synthetic peptide (produced by Peptide Institute, Inc.); test: electrochemiluminescence double antibody sandwich; 21F12 beads, ruthenium-labeled 3D6 detection; untreated Aβ1-42 control sample
[8] = target: Aβ1-42 synthetic peptide (produced by Peptide Institute, Inc.); test: electrochemiluminescence double antibody sandwich; 21F12 on magnetic beads, ruthenium-labeled 3D6 detection; Aβ1-42 at 10 pg/mL
[9] = target: Aβ1-42 synthetic peptide (produced by Peptide Institute, Inc.); test: electrochemiluminescence double antibody sandwich; 21F12 on magnetic beads, ruthenium-labeled 3D6 detection; Aβ1-42 at 1 pg/mL
[10] = target: Aβ1-42 synthetic peptide (produced by Peptide Institute, Inc.); test: electrochemiluminescence double antibody sandwich; 21F12 on magnetic beads, ruthenium-labeled 3D6 detection; Aβ1-42 at 50 pg/mL
[11] = target: Aβ1-42 synthetic peptide (produced by Peptide Institute, Inc.); test: electrochemiluminescence double antibody sandwich; 21F12 on magnetic beads, ruthenium-labeled 3D6 detection; Aβ1-42 at 0.5 pg/mL
[12] = target: Aβ1-42 synthetic peptide (produced by Peptide Institute, Inc.); test: electrochemiluminescence double antibody sandwich; 21F12 on magnetic beads, ruthenium-labeled 3D6 detection; Aβ1-42 at 100 pg/mL
[13] = target: Aβ1-42 synthetic peptide (produced by Peptide Institute, Inc.); test: electrochemiluminescence double antibody sandwich; 21F12 on magnetic beads, ruthenium-labeled 3D6 detection; Aβ1-42 at 5 pg/mL

Sequence of 15 L-β33-42 peptide+ruthenium complex-labeled polylysine-bound substance (peptide, as listed by the source): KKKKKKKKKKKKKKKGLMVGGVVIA

Substance: 21F12 mouse monoclonal antibody (produced by Innogenetics Inc.)
- ECL value [1]: 17000
- ECL value [2]: 34400
- ECL value [3]: 18100
- % (relative ratio of measured value, control sample = 100%) [4]: 9%
- Difference from the blank (ECL value) [5]: 75300
- ECL value [5]: 75800
- ECL value [6]: 1090
- ECL value [7]: 12800
- Difference from the blank (ECL value) [8]: 22400
- ECL value [8]: 22900
- Difference from the blank (ECL value) [9]: 1370
- ECL value [9]: 1840
- Difference from the blank (ECL value) [10]: 160000
- ECL value [10]: 160000
- Difference from the blank (ECL value) [11]: 614
- ECL value [11]: 1080
- Difference from the blank (ECL value) [12]: 345000
- ECL value [12]: 345000
- Difference from the blank (ECL value) [13]: 10300
- ECL value [13]: 10800
